Assay results from US20230340058A1.

Molecular target: human RXFP1, full-length (human), Q9HBX9
Assay: cell-based or functional assay

Chain of human RXFP1, full-length (human), Q9HBX9 (Q9HBX9 whole entry): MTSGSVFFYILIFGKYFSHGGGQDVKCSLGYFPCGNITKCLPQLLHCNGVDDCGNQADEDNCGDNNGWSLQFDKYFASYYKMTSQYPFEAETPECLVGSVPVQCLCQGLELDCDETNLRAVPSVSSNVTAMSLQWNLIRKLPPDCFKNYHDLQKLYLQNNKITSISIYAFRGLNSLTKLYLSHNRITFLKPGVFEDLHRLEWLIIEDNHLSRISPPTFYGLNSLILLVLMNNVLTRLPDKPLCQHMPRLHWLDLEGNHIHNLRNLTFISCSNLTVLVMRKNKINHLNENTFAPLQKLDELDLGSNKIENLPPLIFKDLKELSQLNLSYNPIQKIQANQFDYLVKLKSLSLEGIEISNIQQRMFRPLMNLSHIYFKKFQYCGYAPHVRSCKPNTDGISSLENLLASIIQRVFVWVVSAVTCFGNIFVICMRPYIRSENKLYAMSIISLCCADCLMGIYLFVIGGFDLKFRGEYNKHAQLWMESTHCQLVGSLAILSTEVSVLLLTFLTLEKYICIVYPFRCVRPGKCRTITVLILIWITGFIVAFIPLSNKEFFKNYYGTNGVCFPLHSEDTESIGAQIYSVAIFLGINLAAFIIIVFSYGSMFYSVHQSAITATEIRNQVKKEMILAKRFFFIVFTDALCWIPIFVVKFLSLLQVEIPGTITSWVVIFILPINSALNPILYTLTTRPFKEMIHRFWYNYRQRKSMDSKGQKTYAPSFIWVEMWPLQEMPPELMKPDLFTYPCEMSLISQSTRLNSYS

Binder	Potency Assay EC50 (nM), transient hRXFP1 cAMP assay [nM]
SEQ ID NO: 78 (Fc fusion) DKTHTCPPCPAPEAAGGPSVFLFPPKPKDTLMISRTPEVTCVVVDVSHEDPEVKFNWYVDGVEVHNAKTKPREEQYNSTYRVVSVLTVLHQDWLNGKEYKCKVSNKALAAPIEKTISKAKGQPREPQVYTLPPSRDELTKNQVSLTCLVKGFYPSDIAVEWESNGQPENNYKTTPPVLDSDGSFFLYSKLTVDKSRWQQGNVFSCSVLHEALHSHYTQKSLSLSPGGGSDSWQEEVIKLCGRELVRAQIAICGKSTGGGEEGGGEEGGGRQLYSALANKCCHVGCTKRSLAQFC	23.4
SEQ ID NO: 80 (Fc fusion) DKTHTCPPCPAPEAAGGPSVFLFPPKPKDTLMISRTPEVTCVVVDVSHEDPEVKFNWYVDGVEVHNAKTKPREEQYNSTYRVVSVLTVLHQDWLNGKEYKCKVSNKALAAPIEKTISKAKGQPREPQVYTLPPSRDELTKNQVSLTCLVKGFYPSDIAVEWESNGQPENNYKTTPPVLDSDGSFFLYSKLTVDKSRWQQGNVFSCSVLHEALHSHYTQKSLSLSPGGGSDSWQEEVIKLCGRELVRAQIAICGKSTGGGEGGGEGGGEGRQDYSALANKCCHVGCTKRSLARFC	162
SEQ ID NO: 81 (Fc fusion) DKTHTCPPCPAPEAAGGPSVFLFPPKPKDTLMISRTPEVTCVVVDVSHEDPEVKFNWYVDGVEVHNAKTKPREEQYNSTYRVVSVLTVLHQDWLNGKEYKCKVSNKALAAPIEKTISKAKGQPREPQVYTLPPSRDELTKNQVSLTCLVKGFYPSDIAVEWESNGQPENNYKTTPPVLDSDGSFFLYSKLTVDKSRWQQGNVFSCSVLHEALHSHYTQKSLSLSPGGGSDSWQEEVIKLCGRELVRAQIAICGKSTGGGEGGGEGGGEGRQDYSALANKCCHVGCTKRSLAQFC	426
SEQ ID NO: 84 (Fc fusion) DKTHTCPPCPAPEAAGGPSVFLFPPKPKDTLMISRTPEVTCVVVDVSHEDPEVKFNWYVDGVEVHNAKTKPREEQYNSTYRVVSVLTVLHQDWLNGKEYKCKVSNKALAAPIEKTISKAKGQPREPQVYTLPPSRDELTKNQVSLTCLVKGFYPSDIAVEWESNGQPENNYKTTPPVLDSDGSFFLYSKLTVDKSRWQQGNVFSCSVLHEALHSHYTQKSLSLSPGGGSDSWQEEVIKLCGRELVRAQIAICGKSTGGEGEGGEGEGGSRQLYSALANKCCHVGCTKRSLAQFC	41.9
SEQ ID NO: 83 (Fc fusion) DKTHTCPPCPAPEAAGGPSVFLFPPKPKDTLMISRTPEVTCVVVDVSHEDPEVKFNWYVDGVEVHNAKTKPREEQYNSTYRVVSVLTVLHQDWLNGKEYKCKVSNKALAAPIEKTISKAKGQPREPQVYTLPPSRDELTKNQVSLTCLVKGFYPSDIAVEWESNGQPENNYKTTPPVLDSDGSFFLYSKLTVDKSRWQQGNVFSCSVLHEALHSHYTQKSLSLSPGGGSDSWQEEVIKLCGRELVRAQIAICGKSTGGEGEGGEGEGGSRQLYSALANKCCHVGCTKRSLARFC	9.3
SEQ ID NO: 79 (Fc fusion) DKTHTCPPCPAPEAAGGPSVFLFPPKPKDTLMISRTPEVTCVVVDVSHEDPEVKFNWYVDGVEVHNAKTKPREEQYNSTYRVVSVLTVLHQDWLNGKEYKCKVSNKALAAPIEKTISKAKGQPREPQVYTLPPSRDELTKNQVSLTCLVKGFYPSDIAVEWESNGQPENNYKTTPPVLDSDGSFFLYSKLTVDKSRWQQGNVFSCSVLHEALHSHYTQKSLSLSPGKGGSDSWQEEVIKLCGRELVRAQIAICGKSTGGGEGGGEGGGEGRQDYSALANKCCHVGCTKRSLAQFC	117
SEQ ID NO: 82 (Fc fusion) DKTHTCPPCPAPEAAGGPSVFLFPPKPKDTLMISRTPEVTCVVVDVSHEDPEVKFNWYVDGVEVHNAKTKPREEQYNSTYRVVSVLTVLHQDWLNGKEYKCKVSNKALAAPIEKTISKAKGQPREPQVYTLPPSRDELTKNQVSLTCLVKGFYPSDIAVEWESNGQPENNYKTTPPVLDSDGSFFLYSKLTVDKSRWQQGNVFSCSVLHEALHSHYTQKSLSLSPGKGGSDSWQEEVIKLCGRELVRAQIAICGKSTGGEGEGGEGEGGSRQLYSALANKCCHVGCTKRSLAQFC	18.9
SEQ ID NO: 85 (Fc fusion) DKTHTCPPCPAPEAAGGPSVFLFPPKPKDTLMISRTPEVTCVVVDVSHEDPEVKFNWYVDGVEVHNAKTKPREEQYNSTYRVVSVLTVLHQDWLNGKEYKCKVSNKALAAPIEKTISKAKGQPREPQVYTLPPSRDELTKNQVSLTCLVKGFYPSDIAVEWESNGQPENNYKTTPPVLDSDGSFFLYSKLTVDKSRWQQGNVFSCSVLHEALHSHYTQKSLSLSPGKGGSDSWQEEVIKLCGRELVRAQIAICGKSTGGEGEGGEGEGGSRQDYSALANKCCHVGCTKRSLAQFC	54.4
